Experimental findings from the DeepSol protein solubility set are described below.

This data set can be described thus: soluble on expression in E. coli; label from the status in PepcDB or PDB records.
On to “MGSDKIHHHHHHMKDLSSIVAKFNTQGTITEIKPLGAGLINDTYKVNTQEADAPDYVLQRINHAIFQNVEMLQSNIAAVTGHIRKKLTEAGEADIDRKVLSFLATEEGKTYWFDGESYWRVMVFIPRAKTYETVNPEYSNYAGEAFGNFQAMLADIPETLGETIPDFHNMEFRLKQLRDAVAANAAGRVAEVQYYLDEIEKRADEMCKAERLFREGKLPKRVCHCDTKVNNMMFDEDGKVLCVIDLDTVMPSFIFSDYGDFLRTGANTGDEDDKDLNRVNFNMEIFKAFTKGYLKGAKSFLTPIEIENLPYAAALFPYMQCVRFLADYINGDTYYKIKYPEHNLVRTKAQFKLLQSVEEHTPEMVAFINECLVNG”, for which the “soluble on expression in E. coli” value was “not soluble”. With “MGSDKIHHHHHHMKDLVYLNYAATSYKKFPATIEALTAYLAENQFMNYGRNAPLLREGLPLLETRQLLADFFQAPSAAQITFTNNATTSLNLALAGILQPGDHVITTMLEHHAVARPLHLLEKERGISVTYVACQKTGLLEVEDIQRAWRTNTKALVMTHASNVLGTILPIEECFQWAQQKGLLTILDAAQTAGFLPIKMTQMAIDVLAFTGHKSLYGLAGIGGLAFSERGAEAVKPLMAGGTGSHSNSFDQPSFLPDKFEAGTLNSLGILSLNSSIKELNKIGLAAIQKHERTLMQNFLNGLSGLPVTILGTKDVAQTVPVVSITLWNQEETIVAQQLAEQYGIMTRAGLHCAPLAHQTAGTLATGTLRFSFGWQTTPEEITWTIHALQELLI”, the “soluble on expression in E. coli” value was “not soluble”. For “MGSDKIHHHHHHMKDNKINILFLSWRDIKCPKSGGAEVFTHEMLKRLDFNKYDITHFSPTFEGAKEKEIIDNVTYIRRGNILSVISEAKKYYKTNKDEIDFVVDQCNTHKFFTPLWVPKKKRIFFIHQLTREIWHINARFPISTLGYLFETPTLRLYKNDYTITVSDSTKKDLIDIGFDRDKVTIFPEGINFKPWDKDSLLKEKDNIFGYIGRFVNYKGIDAAVKAYCILKKDYPNSKLWIIGKKKDDYIEKVLLPILKENNITYGNRGQNRDITFWGFVSEKEKLSLMSKMKALLFPSIREGFGLTVIEAGAVGTPTVVYNSKGLVDAVDKGKAGYLCEENTPENLYYFMKNILENENEYGLKRKNAHDFSLKFNWDSTSKYFDDFINKLNEKSLKK” the value was “not soluble”. For “MGSDKIHHHHHHMKDSDILMLAEEGESTSEASARKKALLLGRQLGLASEQEYRPANASIAERAQHRARKLSSQYQANVETIFALALSYTPSDVTGVDLDPDWSHQFFLMAEQIHNRRMQDLWARILSSEIVNPGNFSLRTLALLKQLTHREAQILEKALGMAAKVNSEQRLKLISGYRLSGGIGQYFRKTTSVNLGLSQFGLPYSSILTLVDAGILHSSEFETGLLNNKTPIQFALQGIQMKLTPKSGNLLFSYYRFTPIGDELAQLVQPKPDQEYLKALQLLFAKDFKIE” the value was “not soluble”; for “MGSDKIHHHHHHMKDWWQATFPNGRQTLIITDAKGYPVEISYGEKGKGKPLILLHGMGSWSYNWRHSVTELSKYFRVICFDAKGFGFSEKPLSRREHNGHQVIEFQRIIQALCDEPAVIVAESLGGLVALALAQENPQLIGQLVVVNVPVFAKRLPHWAMGLLAQTPLEIIQTIDSLRLAYFFAPLLREIMAIERRGVLFDPSILTKEDVYWITYPFIEFPGTLVKVAEELQIAAREIENWQADKPNMLTKIQNKLSIIKCPTLVLWGDQDSWFPATHGEKLHQHIPNSKLKILSNCYHDASTGASKELNAAILEFLRDGNTVLRSLDS”, “not soluble”. For “MGSDKIHHHHHHMKESMSITSSTYASALLTLPWGTPLEQWPDNLIAALPRGISRHIVRFVGINRGIVAVKEIGARTAHHEYKMLRELQRLGAPSVRPVAVITGRHPAEEDYGELTAALVTEHLEFSLPYREIFSRHLTVVESEKLIRALSVLLVRMHLLNFYWGDVSLSNTLFRRDAETYSAYLVDAETGEFQPNLSESRRLYDVDIARVNIIGELMDLQAGECLDKSIDVIALGGLVESSYLELWTELTAEESVDASEYWRLSERIDRLNQLGFDVGELKVTKDDSRQVVRIRPVVVDPGHYRAELLSLTGLSVEEHQAQRLLGSIQAYQAVECGPHVGLTQAAHLWMTNEYEPTIAAVPVEMLDKLEPAQIFHEIVDHRWFLAQERGGAVTLPEATASYLESVLPARRDEARLLSTNPSDEDLS” the value was “not soluble”; for “MGSDKIHHHHHHMKEYDKLSIRLVQILSKFNNGESLSAQELAQEFNVDTRTIQRDLNERLTFMPIKKENGRYVLESFALGKLSFKDIQNFATLSGIAELYPKLDQGFIVDLLSHRVNKVLMVKNEGFQKVDYELFKDLSVAILKHNVLNFFYKEKERQIKPYKLVNYKGIWYLLGDENDKLKHFNLDKISKLRTKNENFIPNEKLEEQIQNDPNIWLGESKEVILKLDKNAKEYFFRKEILSNYQIIDKDETSYTLSTQVSYEDEILHLVKQWIPYIKILAPIELKIRLEDILKSYLNNLSK”, “not soluble”; for “MGSDKIHHHHHHMKFFNREKEINKILSIIEGEPNNIYFIYGSLNSGKSTLMREIVVNRLDISKYIPFFIDFRTRNILNVDNFIECLFEVDEKSEIDDFREYAKSLADLLVKGSEEISKYYLGMPIKIPKPFFDKIFNKKDKSADVYQYIEYLFAKLNEKGKKPILIFDELQMIKEITLNGNRKLLWSLFQFLVALTKVQHLCHVFCLSSDSLFIEYVYKTGELEGRADYILVDDFDKQTALKFIDFLAKEILNKKLPKDEKELIYSYVGGKPVLIIKVIDKLRYENLNDILDFMLKDATQKLKYFLNDLDYIKPKVEVGDEVIELKKEDIVKALKLFKDSYEISDSEVAKPIYVYLVKKNILFLNPIEGILKPQSFLIWNAIKRLL”, “not soluble”. Turning to “MGSDKIHHHHHHMKFNEFLNNLSNYEPGKDIEVIAKEYGVKEVIKLASNENPFGTPPKAIECLRQNANKAHLYPDDSMIELKSTLAQKYKVQNENIIIGAGSDQVIEFAIHSKLNSKNAFLQAGVTFAMYEIYAKQCGAKCYKTQSITHNLDEFKKLYETHKDEIKLIFLCLPNNPLGECLDASEATEFIKGVNEDCLVVIDAAYNEFASFKDSKKHLEPCELIKEFDNVLYLGTFSKLYGLGGLRIGYGIANANIISAFYKLRAPFNVSNLALKAAVAAMDDDEFTEKTLENNFSQMELYKEFAKKHNIKIIDSYTNFITYFFDEKNSTDLSEKLLKKGIIIRNLKSYGLNAIRITIGTSYENEKFFTEFDKILR”, the “soluble on expression in E. coli” value was “not soluble”. For “MGSDKIHHHHHHMKHAFETLVGEVHAALQAGEQFTLGYSAEQSQFVRFNHAKVRQAGEVSQASAQLRLVRDGRQAEQQVTLSGDVQLDRQRLNVALEQLRQTLPLLALDPYLRLDENAWHSHSLQEPPLPALNEVLALLEREAGDLDLVGIYAAGPVCRGFASSFGAFGWHQANSFNVDWSLFHDNGQAVKANYAGQAWSADDFTARLRQAREQLGFLGRPAVTLKPGTYRAYLAPAAMDEVAGMLCWGGFSAQALATGNSALQRLYNGDARLSPLVSFTEQVSGSLSPAFSDEGAPRLDVPLIQQGEARQRLISARSAAEFELQANGADGYESPCALSLAPGNLASAQILERLGTGLYISNLWYLNYSDLPAARMTGLTRFATFWVEDGQIQGPVSTMRFDDSLYSLLGSQLEDLTQEREMILSTSTYGQRSTGSSHLPGALVKGLTLTL” the value was “not soluble”; for “MGSDKIHHHHHHMKHYEAYGIATRNTKIQGQFYRLADEEVFIHHFEPLQKNNDIILLLHGYMDHSLTSARLINRLISEGFEVVALDWPGHGLSKGETYHIRSFRQYNTIFLQLVQDMIERWGSDRIHLIAHSTGAGVVLDGLTNNLKKMPTGGIVLTSPLIKLPSHRIGKLFLPFVRKWRKQVRRIYRTNSSDPLFMKAIEEDPLQHEVIPLTWFDAYLQWHEDMRRRAKCSAENVTILQGTRDTTVHWKANMKWLAETLPSAERILIDGGGHHLWNEGDLIRELVFRFILKRLKKT”, “not soluble”; for “MGSDKIHHHHHHMKIAFDVDVIKDLGITRMVHQVAEWGYKYIEQSPHPQINPFYKHPRASREIMAEYKQALRDTGLELSSFICVYRWSGPDELRRQAAVKNWKRLVEIAVEMGVQVINTEFSGDPNQPEICDEMFYRSMEELLPIFEREGIRVEIQAHPWDFCEENNETVDIVKSFRSDNVKYVYSVPHTFFYDKGVGDVASMLRYAGSDLSHVLIADTRNHTKHCRYIVNPPGVDAVVHQHVGVGEGDVDFDALFRTLREMKFAEQTFKVGGAPIVATSLFGYPEKMKYQAVETRELIERELLRR”, “not soluble”. For “MGSDKIHHHHHHMKIALDPYMIRHLPLDRLPHAVAELGYDQIELSPRSDFLDWWVMPRATRARMTAFRHALRASGVGLASLQPMYRWASPFEDERQWAVRCWKKAIEVATEMECALMVSEFGRGASPERSVGERPGANPKELCEAAWFRSMDELLPILERERIVLSVEPHPEDWIEQLQPAIDIVTNLGSPSLKLSYIAPHTFYYGDDMAAMIAQAAPILAHVRVADTFDHRKSSQLRYIVNPPGSNQIRVHQHLDIGQGEIDWDTFFRALGDAGFDGVMSSCVFAWEDRAEASSRYMRDTIQRYVDRHFDRAAAR” the value was “not soluble”; for “MGSDKIHHHHHHMKIDVEAFRVLSILVEEGSFSKAAERLHKAQSAVSYQVKKLEQHLGVKLFCRDQYRAELTPEGKVILAEGKRLLQYLGNIEHLASRFSEGWEPKLELVVDGSLPMEPIMRALKRVSEHKIPTKIQLNMEFLGGVQHRFERDNADLMLVKDYRTGPNYRPQPLPDINSILVVSRSHPLAKAKELSLFELLQHVELTIEDSSPGKIHSDELQFGGDKVFYLSGFIMKKNALLMGLGFGWMPDFLIQEELASGELQELDFLGGSRYSFTPQLVSTMERPLGRAGRLFTSLILEEFNLYQAQASR”, “not soluble”; for “MGSDKIHHHHHHMKIGIIGAGRVGCSIGKYLRTKDIELAGYYDVDSAAAKEAAEFTRTESFDSLKQLADQSQIIFITTPDSFIIPVWEQLKELSLTNQIICHCSGALSSDSFSGRESMSVSCCSIHPMLPFSNKFSSYEQLNKAFFTVEGQDAAVEAISGLFCSIGNEVCRIDGAKKAKYHAAASILSNQVIAVLDMGYSLLEDCGFTRAEAVRATGQLVMRNIENVLEAGCDGALTGPIERNDIETVKKHIACMQNDDSDDVRLYKMLGTKLVNIAEKKNPDKDYTQMMELLRG”, “not soluble”. For “MGSDKIHHHHHHMKIILANPRGFCAGVDRAISIVELALEIHGAPIYVRHEVVHNRFVVDGLRDRGAIFVEELDEVPNGAIVIFSAHGVSQAVRQEAKERNLKVFDATCPLVTKVHMQVARASRKGTKAILIGHEGHPEVIGTMGQYDNDKGGIYLVEDVEDIAKLTLRNDEDITFMTQTTLSIDDTADVIEVLKQKYPAIQGPRKNDICYATTNRQQAVRELAELSDLVIVVGSKNSSNSNRLAELASRMGVTAKLIDDANDIEVSWLNNVKVIGLTAGASAPEILVQSVISRLKELGVDEVEELEGCEENTVFEVPKELRINKVE” the value was “not soluble”.

For “MGSDKIHHHHHHMKILIYGAGVLGSYAAYELKRVGHEVTILARSSRYEELKEKGLVIRHWFQRKTTKNKINVVKELLPEEYYDAVFIVMQSSQTNAILPVITANVKCPLFVFVGNQDKAKDISEKIKSTSKSNPRVLFGFFSIGGRREGGKVISVHTKHPDFDIGDLEGRDDYKIIIEKIFKETSFKLHYHVNMDDFFKTHIVVIMPLAYLAYMSNCDLRKIAWNRKALNAVIDAMIEGHEVLIKLGHKVDPESSERLLRNHRKVAYLGLKVCAMTPLGKLGISDHCKSGWREMEYLDKRLLEWAKKSNLETPNINKLREHLIKYVHKKVI”, the “soluble on expression in E. coli” value was “not soluble”.
